Source: patent publication US20210130420A1, “RECOMBINANT BINDING PROTEINS TARGETING HER2 AND SERUM ALBUMIN, AND THEIR USES” (Molecular Partners AG, priority 2016, published 2021)

Tests used:
BT474 cells = assay: BT474 cell proliferation, BrdU-labeling; type: cell-based, human; conditions: cellular assays of Example 6 and screening
Method: Protein #21-His and Protein #23-His, were expressed and purified as described in Example 1. Effects of the recombinant binding proteins on BT474 cell proliferation were determined by measuring DNA synthesis using BrdU-labeling (BrdU, Cell Proliferation ELISA, Roche). Briefly, 10000 BT474 cells were seeded per well in a 96 well plate in 100 ul complete medium and incubated for 24 hours. Recombinant binding proteins or controls were added for an additional 72 hours. BrdU for cell labeling was added for the last 24 hours. Labeled (proliferating) cells were detected according to the manufactures protocol. The data were analyzed using the GraphPad prism software, plotting log [c] on the x-axis against OD450-602 nm on the y-axis. Data were fitted using a non-linear regression fit (log(antagonist) vs. response—Variable slope (four parameters)) deriving IC50 values.
Protein #21 and Protein #21-His were expressed and purified as described in Example 1. Standard BrdU cell proliferation assays were performed, well-known to the person skilled in the art. Briefly, effects on cell proliferation of Protein #21-His, other compounds, or Protein #21-His in combination with other compounds, were determined by measuring DNA synthesis using BrdU-labeling (BrdU, Cell Proliferation ELISA, Roche). Briefly, 10000 cells were seeded per well in a 96 well plate in 100 μl complete medium and incubated for 24 hours. Protein #21-His and/or compounds were added for an additional 72 hours. BrdU for cell labeling was added for the last 24 hours. Labeled (proliferating) cells were detected according to the manufactures protocol. The data were analyzed using the Graph Pad prism software (log [c] vs. OD450-602 nm plot). Data were fitted using a non-linear regression fit (log(antagonist) vs. response—variable slope (four parameters)).

[1] = biological target: extracellular domains of EGFR (Homo sapiens, UniProt P00533); assay: Surface plasmon resonance interaction with EGFR; type: binding
HER1/EGFR = assay: Phosphorylation state ELISA, BT474 cells; type: cell-based, human; conditions: 100 nM, 18 hours
[2] = Storage stability in PBS analysed by size-exclusion chromatography; type: physicochemical; conditions: 10 mg/ml in PBS
Method: A storage stability improvement is also observed, when testing the storage stability of Protein #21 and Protein #22 (recombinant binding proteins consisting of the amino acid sequences corresponding to SEQ ID NOs: 21 and 22, respectively). Protein #21 and Protein #22 are prepared as described in Example 1, samples are concentrated to 10 mg/ml in PBS and stored for 1 month at −80° C. in or at 40° C. in glass vials, followed by analysis on standard size-exclusion chromatography.

[3] = Pharmacokinetic comparison of Protein #21 with Protein #33; type: in vivo; conditions: variant lacking the C-terminal serum albumin binding domain
Excerpt: Many options are known in the art for pharmacokinetic engineering including PEGylation, polypeptide extension, Fc-fusion, serum albumin-fusion, and binding to serum albumin, amongst others (Kontermann, R (Ed.) “Therapeutic proteins: strategies to modulate their plasma half-lives”, Wiley-VCH Verlag GmbH, 2012, ISBN 978-3-527-32849-9). Starting from e.g. the combination of designed ankyrin repeat domains with binding specificity for HER2 comprising SEQ ID NOs: 16 and 17, there are hundreds of potential drug candidate variants (choice of pharmacokinetic modification engineering, choice of polypeptide linker (e.g. SEQ ID NOs: 2 to 9 amongst many others), amongst other aspects). […] Results of the effect of the choice of the polypeptide linker are shown e.g. in Example 10.
For the studies in this example Protein #21-His, Protein #24-His, Protein #28-His, Protein #29-His, and Protein #30-His were prepared according to Example 1. Protein #28-His was additionally PEGylated using a 40 kDa PEG moiety (NOF Sunbright GL2-400MA) by maleimid coupling of the PEG-moiety onto the free C-terminal cysteine of Protein #28-His, followed by purification to homogeneity using standard purification methods, procedures well known to the person skilled in the art. Pharmacokinetic analyses in mouse or cynomolgus monkey were performed as described in Examples 8 and 9.

mTOR = assay: Phospho-proteome mass spectrometry of BT474 cells; type: cell-based, human; conditions: 100 nM, 18 hours
Excerpt: (§1) Protein #21 was expressed and purified as described in Example 1. […] Cells were then subjected to a phospho-proteome mass-spectrometry analysis as described by Britton, D., et al. (Britton, D., Zen, Y., Quaglia, A., Selzer, S., Mitra, VI., Lössner, C., Jung, S., Bohm, G., Schmid, P., Prefot, P., Hoehle, C., Koncarevic, S., Gee, J., Nicholson, R., Ward, M., Castellano, L., Stebbing, J., Zucht, H. D., Sarker, D., Heaton, N., and Pike, I., 2014. PLOS One 9 (3), e90948).

AKT [4] = assay: Phospho-proteome mass spectrometry of BT474 cells; type: cell-based, human; conditions: 100 nM, 18 hours
Excerpt: as §1

RAF = assay: Phospho-proteome mass spectrometry of BT474 cells; type: cell-based, human; conditions: 100 nM, 18 hours
Excerpt: as §1

RPS6KB1/S6 Kinase = assay: Phospho-proteome mass spectrometry of BT474 cells; type: cell-based, human; conditions: 100 nM, 18 hours
Excerpt: as §1

HER2 = HER2 (Homo sapiens, UniProt P04626); assay: Phosphorylation state ELISA, BT474 cells; type: cell-based; set-up: BT474 cells were treated for 18 hours with either Protein #21 (100 nM); host or cells: BT474; conditions: 100 nM, 18 hours
Foxo3a protein [5] = assay: Cellular levels of Foxo3a protein in NCI-N87 cells; type: cell-based; conditions: compared to an exposure to PBS only
Excerpt: as §1
(§2) It is known to the practitioner in the art, that Akt1 phosphorylates Foxo3a, resulting in the degradation of Foxo3a and promotion of cell survival. Inhibition of Act phosphorylation leads to stabilization of Foxo3a and thus increase in Foxo3a levels. At increased levels Foxo3a can translocate to the nucleus and induce apoptosis.

AKT [6] = assay: Phospho-site specific ELISA, BT474 cells; type: cell-based, human; conditions: 100 nM, 18 hours
Foxo3a protein [7] = assay: Cellular levels of Foxo3a protein in BT474 cells; type: cell-based, human; conditions: compared to an exposure to PBS only
Excerpt: as §1, §2

[8] = tested on: SKBR-3, SKOV-3, NCI-N87, ZR-75-30, HCC1419, or MDA-MB175; assay: Induction of apoptosis in further cell lines; type: cell-based

B1: Protein #21: SEQ ID NO: 21; HER2 binding domains (SEQ ID NOs: 16, 17) flanked by two serum albumin binding domains (SEQ ID NO: 14), SEQ ID NO: 9 linkers (protein)
chain: GSDLGKKLLEAARAGQDDEVRELLKAGADVNAKDYFSHTPLHLAARNGHLKIVEVLLKAGADVNAKDFAGKTPLHLAANEGHLEIVEVLLKAGADVNAQDIFGKTPADIAADAGHEDIAEVLQKAAGSPTPTPTTPTPTPTTPTPTPTGSDLGIKLLFAAAKGQDDEVRELLKAGADVNAKDFQGVTPLHIAAQSGHLEIVEVLLKAGADVNAKDVTGDTPLHLAAQHGHLEIVEVLLKAGADVNAQDERGWTPADLAADWGHEDIAEVLQKAAGSPTPTPTTPTPTPTTPTPTPTGSDLGKKLLEAARAGQDDEVRELLKAGADVNAKDEYGLTPLYLATAHGHLEIVEVLLKAGADVNAVDAIGFTPLHLAAFIGHLEIAEVLLKAGADVNAQDKFGKTPADIAAGAGNEDIAEVLQKAAGSPTPTPTTPTPTPTTPTPTPTGSDLGKKLLEAARAGQDDEVRELLKAGADVNAKDYFSHTPLHLAARNGHLKIVEVLLKAGADVNAKDFAGKTPLHLAANEGHLEIVEVLLKAGADVNAQDIFGKTPADIAADAGHEDIAEVLQKAA
modifications: Protein comprising four designed ankyrin repeat domains
cellular potency (BT474 cells): high cellular potency | interaction with extracellular domains of EGFR [1]: does not interact | HER1/EGFR Pan-Phospho-Tyrosine (HER1/EGFR): 0.40 fold change to PBS | monomeric species compared to Protein #22 ([2]; 1 month at 40° C.): significantly more monomeric species | elution profiles upon storage at −80° C. ([2]; 1 month at −80° C.): equivalent elution profiles | pharmacokinetic properties compared to Protein #33 [3]: markedly improved pharmacokinetic properties, in particular a longer terminal half-life | mTOR S2448/S2454 phosphorylation (mTOR): 0.79 fold change to PBS | AKT S124 phosphorylation (AKT [4]): 0.99 fold change to PBS | AKT S129 phosphorylation (AKT [4]): 0.93 fold change to PBS | RAF S642 phosphorylation (RAF): 0.81 fold change to PBS | RAF T631/T638/T640/T641/S642 phosphorylation (RAF): 0.48 fold change to PBS | RPS6KB1/S6Kinase S441/T444/S447 phosphorylation (RPS6KB1/S6 Kinase): 0.63 fold change to PBS | RPS6KB1/S6Kinase T444/S447 phosphorylation (RPS6KB1/S6 Kinase): 0.92 fold change to PBS | HER2 Pan-Phospho-Tyrosine (HER2): 0.04 fold change to PBS | increase of cellular levels of Foxo3a protein (Foxo3a protein [5]): 2.8 fold | AKT S473 phosphorylation (AKT [6]): 0.16 fold change to PBS | increase of cellular levels of Foxo3a protein (Foxo3a protein [7]): 1.88 fold | potency in inducing apoptosis in further cell lines [8]: high potency in inducing apoptosis
